Data: the supplement of paper PMC9233669
Fewer inactive variants are shown than the library holds.

Legend:
biotinyl-Phe-oxazolone = assay: self-aminoacylation, catalytic enhancement (BFO) (fold over background); higher = more active; k-Seq, kA / k0A0; sequences stand for … in GGGAAUGGAUCCACAUCUACGAAUUC…UUCACUGCAGACUUGACGAAGCUG
Outline: (§1)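 The uncatalyzed rate is the low-activity peak of a bimodal Gaussian fit, and catalytic enhancement is median kA divided by it. The kA values came from pseudo-first-order fits, with 1000 bootstraps, of per-sequence fraction reacted measured by streptavidin capture, triplicate qPCR and Illumina sequencing. Mutagenized RNA pools with a 21-nt variable region (0.43 μM) were reacted with each biotinyl-aminoacyl-oxazolone at 2–1250 μM in 50 μL HEPES/NaCl/KCl/MgCl2/CaCl2 buffer with 5% acetonitrile, pH 6.9–7.0, for 90 minutes at room temperature.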

biotinyl-Leu-oxazolone = assay: self-aminoacylation, catalytic enhancement (BLO) (fold over background); higher = more active; k-Seq, kA / k0A0; sequences stand for … in GGGAAUGGAUCCACAUCUACGAAUUC…UUCACUGCAGACUUGACGAAGCUG
Outline: as §1

biotinyl-Met-oxazolone = assay: self-aminoacylation, catalytic enhancement (BMO) (fold over background); higher = more active; k-Seq, kA / k0A0; sequences stand for … in GGGAAUGGAUCCACAUCUACGAAUUC…UUCACUGCAGACUUGACGAAGCUG
Outline: as §1

biotinyl-Trp-oxazolone = assay: self-aminoacylation, catalytic enhancement (BWO) (fold over background); higher = more active; k-Seq, kA / k0A0; sequences stand for … in GGGAAUGGAUCCACAUCUACGAAUUC…UUCACUGCAGACUUGACGAAGCUG
Outline: as §1

Row | Sequence | self-aminoacylation (biotinyl-Phe-oxazolone) | self-aminoacylation (biotinyl-Leu-oxazolone) | self-aminoacylation (biotinyl-Met-oxazolone) | self-aminoacylation (biotinyl-Trp-oxazolone)
1 | CUUACCCUGGUCAUCGAGUGC [Fam2.1 aminoacylation ribozyme variant] | 4.77 | 3.18 | 2.91 | 3.03
2 | AUUCUCCUAGGUCAUAGGGUG [Fam2.2 aminoacylation ribozyme variant] | 8.67 | 2.94 | 2.33 | –
3 | AAGAAUGCUAAUAGUCGCAAG [Fam3.1 aminoacylation ribozyme variant] | 12.5 | – | 2.19 | 3.69
4 | AUUACCCAGGUCAUCGUGUGA [Fam2.1 aminoacylation ribozyme variant] | 21.4 | 3.86 | 3.58 | 4.27
5 | CGACUUCAAACAAUCGGUGUG [Fam1A.1 aminoacylation ribozyme variant] | 10.9 | 2.54 | – | 9.56
6 | AAGCUUGCUAAUAGUCGCAGG [Fam3.1 aminoacylation ribozyme variant] | 7.7 | 2.14 | – | 2.15
7 | AAGUGUGCUAAUAGUCGCCAG [Fam3.1 aminoacylation ribozyme variant] | 2.38 | 2.2 | – | 2.33
8 | AUACACCUAGGUCAUCGAGUG [Fam2.2 aminoacylation ribozyme variant] | 2.81 | 2.87 | 2.4 | 2.4
9 | AUUCACCUCGGUCAUCGAGUG [Fam2.2 aminoacylation ribozyme variant] | 13.1 | 2.88 | 2.33 | 2.51
10 | AUUCACUUAGCUCAUCGGGUG [Fam2.2 aminoacylation ribozyme variant] | 4.96 | 2.03 | – | –
11 | AAGAUUGUUAAUAGUCGCAAG [Fam3.1 aminoacylation ribozyme variant] | 2.81 | – | 2.14 | 2.65
12 | CUACUUCAAAGAAUCGGCCUG [Fam1A.1 aminoacylation ribozyme variant] | 6.89 | 2 | – | 8.54
13 | UCAGACUUCAAGCAAUCGGUC [Fam1B.1 aminoacylation ribozyme variant] | 63.8 | 2.62 | – | 37.2
14 | AUUAACCUGGCCAUCGAGUGA [Fam2.1 aminoacylation ribozyme variant] | – | 2.11 | 2.01 | 2.78
15 | AUUCACCUAGGUCCUCGGGAG [Fam2.2 aminoacylation ribozyme variant] | 2.83 | 2.11 | – | –
16 | AAUACCCUGGUCAUCGAGUGG [Fam2.1 aminoacylation ribozyme variant] | 7.18 | 2.81 | 2.49 | 3.39
17 | AAUACCCUGGUCCUCGAGUGA [Fam2.1 aminoacylation ribozyme variant] | 9.54 | 3.33 | 3.08 | 3.22
18 | AAGACUGCUAAUAGUCGCAAG [Fam3.1 aminoacylation ribozyme variant] | 18.5 | – | 2.04 | 4.56
19 | AACUCUGCUAAUAGUCGCAAG [Fam3.1 aminoacylation ribozyme variant] | 16.4 | – | 2.46 | 5.56
20 | AUUACCCUGGUCCUCGAGUGG [Fam2.1 aminoacylation ribozyme variant] | 2.88 | – | 2.1 | –
21 | CCACUCUUCAAGCAAUCGGGC [Fam1B.1 aminoacylation ribozyme variant] | – | 2.21 | – | –
22 | AUUACCCUGGUCAUCCAGAGA [Fam2.1 aminoacylation ribozyme variant] | 2.38 | 2.03 | – | –

Row | Sequence | self-aminoacylation (biotinyl-Phe-oxazolone) | self-aminoacylation (biotinyl-Leu-oxazolone) | self-aminoacylation (biotinyl-Met-oxazolone) | self-aminoacylation (biotinyl-Trp-oxazolone)
23 | AAGUUUGCUAAUAGUCGCGUG [Fam3.1 aminoacylation ribozyme variant] | 8.13 | 2.15 | 2.33 | 2.15
24 | CUUACCCUGCUCAUCGAGUGA [Fam2.1 aminoacylation ribozyme variant] | 2.86 | 2.19 | 2.57 | 2.2
25 | AUAACCCUGGUCAUCGUGUGA [Fam2.1 aminoacylation ribozyme variant] | 15.2 | 3.53 | 3.15 | 3.32
26 | AAGUUUGCCAAUAGUCGCACG [Fam3.1 aminoacylation ribozyme variant] | – | 2.05 | 2.3 | –
27 | CCUCUUCAAACAAUCGGUCUG [Fam1A.1 aminoacylation ribozyme variant] | 85.8 | 2.36 | – | 38.6
28 | CCAGGCUUCAAGCAAUCGGUC [Fam1B.1 aminoacylation ribozyme variant] | 83.5 | 2.42 | – | 40.8
29 | AUUACCCUGGUCGUCCAGUGA [Fam2.1 aminoacylation ribozyme variant] | 11.1 | 2.88 | 2.68 | 3.21
30 | AUUACCCUCGUCAUGGAGUGA [Fam2.1 aminoacylation ribozyme variant] | 8.82 | 3.02 | 2.81 | 2.5
31 | AUUACCCUGGGCUUCGAGUGA [Fam2.1 aminoacylation ribozyme variant] | – | – | 2.01 | 2.03
32 | AAGCUUGCUAAUAGCCGCAAG [Fam3.1 aminoacylation ribozyme variant] | 3.2 | 2.58 | 2.25 | 3.08
33 | AUUACCCUGGUCAUCGAGGGG [Fam2.1 aminoacylation ribozyme variant] | 2.86 | 2.42 | 2.75 | 2.23
34 | AAGCUUGGUAAUAGUCGCAAG [Fam3.1 aminoacylation ribozyme variant] | 2.69 | 2.52 | 2.46 | 2.68
35 | CUGCUUCAAACAAUCGGUCUC [Fam1A.1 aminoacylation ribozyme variant] | 107 | 2.47 | – | 46
36 | AUUACCCUCGUCGUCGAGUGA [Fam2.1 aminoacylation ribozyme variant] | 3.84 | 2.04 | – | 2.11
37 | CUACUUCAAACAAUCGAUGUG [Fam1A.1 aminoacylation ribozyme variant] | 3.31 | – | 2.24 | –
38 | CUACCUCAAACAAUCGGCCUG [Fam1A.1 aminoacylation ribozyme variant] | 3.13 | 2.11 | – | 5.05
39 | AUUCACCUAGAUAAUCGGGUG [Fam2.2 aminoacylation ribozyme variant] | 12.9 | 2.79 | 2.25 | –
40 | CUACCUCAAACAUUCGGUCUG [Fam1A.1 aminoacylation ribozyme variant] | 10.3 | 2.13 | – | 3.08
41 | CCACACUUCAAGCAGUCGCUC [Fam1B.1 aminoacylation ribozyme variant] | 4.31 | 2.06 | – | –
42 | GCACUCUUCAAGCAAUCGGUC [Fam1B.1 aminoacylation ribozyme variant] | 6.58 | 2.07 | – | 5.27
43 | UUACUUCAAACAAUCGGUCGG [Fam1A.1 aminoacylation ribozyme variant] | 18.1 | 2.1 | – | 14.5
44 | CCGCACUUCAAACAAUCGGUC [Fam1B.1 aminoacylation ribozyme variant] | 157 | 3.41 | – | 74.3
